The target of the test is hSgt2 M233D (Homo sapiens) (UniProt O43765). The test can be described thus: pull-down.

Consider 1 molecule from article doi:10.1101/517573.

Sequence of UniProt O43765 (O43765 213-313 M233D): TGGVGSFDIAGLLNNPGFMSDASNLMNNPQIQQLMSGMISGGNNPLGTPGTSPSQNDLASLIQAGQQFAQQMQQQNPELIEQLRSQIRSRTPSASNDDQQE

B1: MBP-Sbh1 full length (natural protein)
chain: MSSPTPPGGQRTLQKRKQGSSQKVAASAPKKNTNSNNSILKIYSDEATGLRVDPLVVLFLAVGFIFSVVALHVISKVAGKLF
Regarding B1, the percent reduction of binding against wild type is 36%.
